T1: Signal peptide peptidase (SPP) fluorescent fusion protein (CFP or YFP fused to the NH2- or COOH-terminus of SPP), Q8TCT9
T1 chain: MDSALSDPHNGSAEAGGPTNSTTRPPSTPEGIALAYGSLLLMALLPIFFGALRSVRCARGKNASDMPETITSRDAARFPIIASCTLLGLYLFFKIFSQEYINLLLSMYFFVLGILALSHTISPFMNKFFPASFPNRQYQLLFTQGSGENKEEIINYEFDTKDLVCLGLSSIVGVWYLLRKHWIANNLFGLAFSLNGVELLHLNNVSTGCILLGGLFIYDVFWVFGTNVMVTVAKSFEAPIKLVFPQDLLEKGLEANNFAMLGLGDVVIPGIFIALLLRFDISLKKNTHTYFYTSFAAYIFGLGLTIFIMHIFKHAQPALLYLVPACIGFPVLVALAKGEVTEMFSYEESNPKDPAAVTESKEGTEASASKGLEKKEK

T2: Epitope tagged signal peptide peptidase (SPP): COOH-terminal V5 tagged SPP (SPPCTV5) and NH2-terminal FLAG tagged SPP (…), Q8TCT9
T2 chain: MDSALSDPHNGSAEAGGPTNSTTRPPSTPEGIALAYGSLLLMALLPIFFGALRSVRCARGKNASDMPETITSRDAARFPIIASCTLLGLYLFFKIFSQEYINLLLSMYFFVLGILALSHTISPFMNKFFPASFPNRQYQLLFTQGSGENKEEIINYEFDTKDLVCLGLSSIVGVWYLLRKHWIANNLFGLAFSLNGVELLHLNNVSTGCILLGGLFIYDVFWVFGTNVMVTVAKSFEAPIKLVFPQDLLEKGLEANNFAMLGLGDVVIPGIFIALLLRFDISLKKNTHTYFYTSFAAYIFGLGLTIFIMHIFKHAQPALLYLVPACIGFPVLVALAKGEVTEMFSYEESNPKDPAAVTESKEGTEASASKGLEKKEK


Experiments:
[1] = target: T1, Signal peptide peptidase (SPP) …; assay: FRET or BRET; FLIM (fluorescence lifetime imaging microscopy) in live CHO cells co-transfected with CFP-SPP (donor) and YFP-SPP (acceptor) fusion constructs, 24 hours post-transfection, in Hank's Balanced Salt Solution; donor-only (empty vector) as negative control; settings: remark: other sources report otherwise
[2] = target: T2, Epitope tagged signal peptide peptidase …; assay: FRET or BRET; FLIM in fixed (4% paraformaldehyde), permeabilised HEK cells stably overexpressing SPPCTV5 and …; goat anti-V5 labelled with Alexa 488 (donor), mouse anti-FLAG labelled with Cy3 (acceptor); cells expressing only SPPCTV5 as negative control; settings: remark: other sources report otherwise

Row | CFP donor lifetime (donor CFP at COOH-terminus of SPP, acceptor YFP at COOH-terminus of SPP; donor only 2267 psec) [1] [psec] | CFP donor lifetime (donor CFP at NH2-terminus of SPP, acceptor YFP at COOH-terminus of SPP; donor only 2267 psec) [1] [psec] | CFP donor lifetime (donor CFP at NH2-terminus of SPP, acceptor YFP at NH2-terminus of SPP; donor only 2267 psec) [1] [psec] | Alexa 488 donor lifetime (donor Alexa 488 labeled SPPCTV5, acceptor Cy3 labeled …) [2] [psec] | Alexa 488 donor lifetime (donor Alexa 488 labeled SPPCTV5, acceptor Cy3 labeled …; donor only 2504 psec) [2] [psec] | Binder
1 | 1490 | 1530 | 1760 | – | – | Signal peptide peptidase (SPP) fluorescent fusion protein (CFP or YFP fused to the NH2- or COOH-terminus of SPP), Q8TCT9 1-377 (enzyme) MDSALSDPHNGSAEAGGPTNSTTRPPSTPEGIALAYGSLLLMALLPIFFGALRSVRCARGKNASDMPETITSRDAARFPIIASCTLLGLYLFFKIFSQEYINLLLSMYFFVLGILALSHTISPFMNKFFPASFPNRQYQLLFTQGSGENKEEIINYEFDTKDLVCLGLSSIVGVWYLLRKHWIANNLFGLAFSLNGVELLHLNNVSTGCILLGGLFIYDVFWVFGTNVMVTVAKSFEAPIKLVFPQDLLEKGLEANNFAMLGLGDVVIPGIFIALLLRFDISLKKNTHTYFYTSFAAYIFGLGLTIFIMHIFKHAQPALLYLVPACIGFPVLVALAKGEVTEMFSYEESNPKDPAAVTESKEGTEASASKGLEKKEK
2 | – | – | – | 2200 | 1980 | Epitope tagged signal peptide peptidase (SPP): COOH-terminal V5 tagged SPP (SPPCTV5) and NH2-terminal FLAG tagged SPP (…), Q8TCT9 1-377 (enzyme) MDSALSDPHNGSAEAGGPTNSTTRPPSTPEGIALAYGSLLLMALLPIFFGALRSVRCARGKNASDMPETITSRDAARFPIIASCTLLGLYLFFKIFSQEYINLLLSMYFFVLGILALSHTISPFMNKFFPASFPNRQYQLLFTQGSGENKEEIINYEFDTKDLVCLGLSSIVGVWYLLRKHWIANNLFGLAFSLNGVELLHLNNVSTGCILLGGLFIYDVFWVFGTNVMVTVAKSFEAPIKLVFPQDLLEKGLEANNFAMLGLGDVVIPGIFIALLLRFDISLKKNTHTYFYTSFAAYIFGLGLTIFIMHIFKHAQPALLYLVPACIGFPVLVALAKGEVTEMFSYEESNPKDPAAVTESKEGTEASASKGLEKKEK

Source: article PMC1654158
